The results in this text go back to the RNAGym collection of RNA variant scans (doi:10.1073/pnas.2313332121).

First the molecules themselves.
B1: TPR t1 (parent)
chain: GACCAAUCUGCCCUCAGAGCUCGAGAACAUCUUCGGAUGCAGAGGAGGCAGGCUUCGGUGGCGCGAUAGCGCCAACGUCCUCAACCUCCAAUGCAUCCCACCACAUGAUGAUGCCUGAAGAGCCUUGGUUUUUUG

In the data set the parent is B1. Kind of data set: polymerase ribozyme fitness, log enrichment relative to wild type (log ratio); higher = more active; in vitro selection for triplet polymerase activity. The essentials: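 Mutant libraries for each subunit of a heterodimeric triplet polymerase ribozyme were made by PCR and then transcribed. Each library underwent one round of in vitro selection in triplicate: annealing with a biotinylated primer, the partner subunit and triplets, frozen incubation at −7 °C, gel excision of extended constructs, streptavidin-bead capture and RT-PCR. Input and output libraries were Illumina-sequenced, and only genotypes with ≥10 input reads and ≥1 read per output were kept. Fitness is the logarithm, base 2, of genotype enrichment over wild-type enrichment, computed from inverse-variance-weighted replicate averages.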
In the case of A90U G113U, the “polymerase ribozyme fitness (log ratio)” value was -2.89.
With U87A U130C the figure was -1.39; with A83U G120U U129C, -1.36; with C82A G122A, -0.963.
As for A83G C97U U109A, the figure is -5.36; as for C85U C114G, -3.53.
As for G93C C99U, the “polymerase ribozyme fitness (log ratio)” value was -3.93.
With G93U C94U the figure was -1.22; with U92C C99G G113U, -6.05; with A83G U112C U131A, 1.02.
For the variant G93U C102A G120A, the “polymerase ribozyme fitness (log ratio)” value is -2.52.
Turning to A83U C104A, the “polymerase ribozyme fitness (log ratio)” value is -1.18.
Consider U87G A103C, for which the “polymerase ribozyme fitness (log ratio)” value was -5.65.
With U92A G117U, the “polymerase ribozyme fitness (log ratio)” value is -4.95.
With A83C A111U the figure was -3.57.
With U92A U112C A121C the figure was -0.365; with A84G U130G, -1.3.
On to C82G A95C G110U, for which the “polymerase ribozyme fitness (log ratio)” value is -3.96.
On to G93A C104U, for which the “polymerase ribozyme fitness (log ratio)” value is -0.0844.
As for C82A U112G, the “polymerase ribozyme fitness (log ratio)” value turned out to be 0.0724.
Take U87C C88A U106G: the “polymerase ribozyme fitness (log ratio)” value is -2.76.
As for A90G U92G G107U C114U G127U, the figure is -5.63.
As for A84U C94A C115A, the figure is -1.46; as for C86G A108G U130A, -3.28.
As to U81G C94U A121G, the “polymerase ribozyme fitness (log ratio)” value was -2.71.
As for C88A C102A G107A A111C U116G C123G U125A, the figure is -6.39; as for C86U A100U, -0.74; as for A83C C104A, -1.32.
As for A83U G117U, the “polymerase ribozyme fitness (log ratio)” value is -1.02.
For C89U A105G, the “polymerase ribozyme fitness (log ratio)” value is -2.76.
As for A84C C123U U133G, the figure is 0.656; as for C85G C115G U132A, -2.4.
With U92A C115U the figure was -3.78.
With C85G C124G U126G the figure was -0.338.
In the case of C82G C99A C101U A119G, the “polymerase ribozyme fitness (log ratio)” value is -6.25.
With C89A U132C the figure was -1.96.
Turning to C88U C89A C115U G117C U126A, the “polymerase ribozyme fitness (log ratio)” value is -3.5.
With U87C A90C C115A the figure was -0.371.
With C88A C94U the figure was -0.581; with C88A C94A, -1.66; with C82A U116C, -0.539.
On to A90C G117U, for which the “polymerase ribozyme fitness (log ratio)” value was -3.98.
With A91U C123G the figure was 0.354; with C85G G127C, -2.56.
For the variant C86A G135U, the “polymerase ribozyme fitness (log ratio)” value is -1.3.
With C89A G120C the figure was -0.369; with A83C G135U, -0.881.
As for U87A A118G, the figure is 0.111; as for C86U C88U, 0.0768; as for A90C U106A, -1.42.
With G93C U130G the figure was -1.51.
For C88A U126A, the “polymerase ribozyme fitness (log ratio)” value is -3.12.
With U87A G93A the figure was -0.908.
With A83C U106A the figure was 0.162; with A83C U106C, -0.823; with C82U C86A C97A, -4.95.
As for C82G A108G A111G A121C, the figure is -5.85; as for U92A G120A, -2.17; as for U92A G120U, -2.93.
As for C88G G110A, the “polymerase ribozyme fitness (log ratio)” value is -1.15.
With C86G G110A G113U C124A the figure was -6.69; with G93U U96A, -2.6.
With A84C C98A C114G U116C the figure was -4.74; with C89G U106A G120C G122C, -1.85; with U92A C114U, -3.08.
As for C82G C86A A121U, the figure is 1.39; as for C88U C98A, -4.94.
For the variant G93U G120C, the “polymerase ribozyme fitness (log ratio)” value is -0.763.
With A84U C88A the figure was -1.4.
With A84U U133A, the “polymerase ribozyme fitness (log ratio)” value was -0.823.
With C82U C88A the figure was -0.557; with A83U C85A U112A C114A, -3.32; with C86A G93U C115U, -4.53.
As for C86A G110A C123G, the figure is -1.37; as for A84C U116G, -1.83; as for C82A U112A C114G, -0.66.
As for G93C G120A U130C, the figure is 0.452; as for C86A A105C, -2.57.
Consider C86U G120A, for which the “polymerase ribozyme fitness (log ratio)” value was determined as 0.277.
C88U C97U: the “polymerase ribozyme fitness (log ratio)” value is -1.02.
With C85G C86A the figure was -1.69.
With C89U U92C U112G G127U U130A the figure was -3.09.
Regarding A84U C97U, the “polymerase ribozyme fitness (log ratio)” value was -0.894.
As for C88A C104A, the figure is -1.63.
